The source of these data is paper PMC7749166 (Communications Biology, 2020).

For the test, the target named is T1, C5aR^R175V/Y258V (Homo sapiens, UniProt P21730, R175V/Y258V).
T1 construct: Flag (N); His8 (C); made in house; host or cells: HEK-293S cells (BacMam baculovirus)
T1 sequence (P21730 1-350 R175V/Y258V): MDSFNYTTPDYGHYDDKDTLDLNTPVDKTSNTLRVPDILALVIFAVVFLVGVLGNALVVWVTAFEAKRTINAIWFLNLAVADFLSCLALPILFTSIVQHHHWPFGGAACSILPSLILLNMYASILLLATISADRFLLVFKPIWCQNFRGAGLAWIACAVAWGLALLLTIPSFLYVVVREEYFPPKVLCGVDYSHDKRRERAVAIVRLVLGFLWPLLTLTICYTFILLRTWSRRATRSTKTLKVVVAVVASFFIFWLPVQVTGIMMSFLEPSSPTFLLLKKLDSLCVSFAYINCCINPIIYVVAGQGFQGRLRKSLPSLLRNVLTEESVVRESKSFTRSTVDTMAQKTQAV
Kind of test: 35S-GTPγS binding assay, R175V/Y258V mutant. It is filed as biochemical. The following applies: increased concentration of C5a, Fig. S7. The procedure:
Mutant variants (D282A, D282N, and R175V/Y258V) were generated based on the wtC5aR construct and fully sequenced. Mutant variants were expressed following the same method as for wtC5aR except for some modifications. HEK-293S cells expressing each mutant were pelleted by centrifugation and resuspended in 20 ml buffer containing 20 mM HEPES pH 7.5, 100 mM NaCl, 0.2 μg ml^−1 leupeptin, and 150 μg ml^−1 benzamidine. After 20 min incubation at 25 °C, 20 ml 2X solubilization buffer containing 20 mM HEPES pH 7.5, 100 mM NaCl, 1% dodecyl-maltoside (DDM), 0.2% cholesterol hemisuccinate (CHS), 20% glycerol, 0.2 μg ml^−1 leupeptin, 150 μg ml^−1 benzamidine, and 5 U Salt Active Nuclease (Sigma) was added. Cell membranes were solubilized for 1.5 h at 4 °C. […]
For the ^35S-GTPγS binding assays, the membrane of HEK293S GnTI^− cells expressing wtC5aR (~200 µg ml^−1) or mutant variants was incubated with 200 nM purified Gi protein for 30 min on ice in buffer containing 20 mM HEPES pH 7.5, 100 mM NaCl, 5 mM MgCl2, 3 μg ml^−1 BSA, 0.1 μM TCEP, and 5 μM GDP to get the receptor and Gi complex. […] The radiation of bound ^35S-GTPγS was measured on a Beckman LS6500 scintillation counter to determine the binding of ^35S-GTPγS to Gi induced by C5aR activation. […]

B1: C5a: C5a, a large 74-amino acid glycoprotein; endogenous ligand of C5aR (His6-tag at N-terminal end for AFM tips) (protein)
chain: TLQKKIEEIAAKYKHSVVKKCCYDGACVNNDETCEQRAARISLGPRCIKAFTECCVVASQLRANISHKDMQLGR
modifications: left off: His6, N-terminal, kept
Turning to B1, the “Gi-protein activation vs C5aR^WT” value is “strong reduction in the Gi-protein activation”.
